Values of other authors as cited in publication PMC8035318.

Molecular target: Polκ RIR (Homo sapiens) (UniProt Q9UBT6)
Assay: SPR

- Kd: 1.7 µM
Substance: Rev1 CT (from UniProt Q9UBZ9)
